Data on one substance can be found in article PMC4917739.

pKd: −log10 of the molar value.

In experiment [1] the target is single-chain BG505 SOSIP.664 trimer (HIV-1 strain BG505). Put plainly: SPR. For orientation: Surface plasmon resonance follows binding to a sensor surface in real time, without labels.
Experiment [2] deals with BG505 SOSIP.664 trimer (HIV-1 strain BG505). Put plainly: SPR.
For experiment [3], the target named is BG505 SOSIP.664 N88Q (HIV-1 strain BG505). Nature of the experiment: SPR.
Experiment [4] deals with BG505 SOSIP.664 trimer (HIV-1 strain BG505). Put plainly: negative-stain electron microscopy.

For Fab VRC34.01, the negative-log Kd (pKd) was 6.57 in experiment [1], 9.52 in experiment [2] and 7.70 in experiment [3]. The substance also gave a stoichiometry N in experiment [4] of 3.

One may read the pKd as the Kd on a negative log10 scale, so that one unit is a factor of ten. By stoichiometry N is commonly meant a count of units in the complex or per binding partner.
